Data from PMC4437028 (2015).

B1: mouse PTPδ Ig1-Fn1 (residues 28-418), splice variant meA9B+ [modified: N-linked glycans] [mouse] / mouse Slitrk2 LRR1 (first leucine-rich repeat of Slit and Trk-like family member 2), wild type [modified: N-linked glycans; N-linked … (parent complex)
chain 1: ETPPRFTRTPVDQTGVSGGVASFICQATGDPRPKIVWNKKGKKVSNQRFEVIEFDDGSGSVLRIQPLRTPRDEAIYECVASNNVGEISVSTRLTVLREDQIPRGFPTIDMGPQLKVVERTRTATMLCAASGNPDPEITWFKDFLPVDTSNNNGRIKQLRSESIGGTPIRGALQIEQSEESDQGKYECVATNSAGTRYSAPANLYVRELREVRRVPPRFSIPPTNHEIMPGGSVNITCVAVGSPMPYVKWMLGAEDLTPEDDMPIGRNVLELNDVRQSANYTCVAMSTLGVIEAIAQITVKALPKPPGTPVVTESTATSITLTWDSGNPEPVSYYIIQHKPKNSEEPYKEIDGIATTRYSVAGLSPYSDYEFRVVAVNNIGRGPASEPVLTQK
chain 2: MLSGVWFLSVLTVAGILQTESRKTAKDICKIRCLCEEKENVLNINCENKGFTTVSLLQPPQYRIYQLFLNGNLLTRLYPNEFVNYSNAVTLHLGNNGLQEIRPGAFSGLKTLKRLHLNNNKLEVLREDTFLGLESLEYLQADYNYISTIEAGAFSKLNKLKVLILNDNLLLSLPSNVFRFVLLTHLDLRGNRLKVMPFAGVLEHIGGIMEIQLEENPWNCTCDLLPLKAWLDTITVFVGEIVCETPFRLHGKDVTQLTRQDLCPRK

Variants of: B1
Assay: SPR equilibrium analysis; point at 4 µM PTPδ Ig1-Fn1 (highest concentration); parent: 600; read off a plot

Row | response [Response unit] | Variant
1 | ~100 | chain 2 MLSGVWFLSVLTVAGILQTESRKTAKDICKIRCLCEEKENVLNINCENKGFTTVSLLQPPQYRIYQLFLNGNLLTRLYPNEFVNYSNAVTLHLGNNGLQEIRPGAFSGLKTLKRLHLNNNKLEVLREDTFLGLESLEYLQADYNYISTIEAGAFSKLNKLKVLILNANLLLSLPSNVFRFVLLTHLDLRGNRLKVMPFAGVLEHIGGIMEIQLEENPWNCTCDLLPLKAWLDTITVFVGEIVCETPFRLHGKDVTQLTRQDLCPRK [chain 2 D167A]
2 | ~490 | chain 2 MLSGVWFLSVLTVAGILQTESRKTAKDICKIRCLCEEKENVLNINCENKGFTTVSLLQPPQYRIYQLFLNGNLLTRLYPNEFVNYSNAVTLHLGNNGLQEIRPGAFSGLKTLKALHLNNNKLEVLREDTFLGLESLEYLQADYNYISTIEAGAFSKLNKLKVLILNDNLLLSLPSNVFRFVLLTHLDLRGNRLKVMPFAGVLEHIGGIMEIQLEENPWNCTCDLLPLKAWLDTITVFVGEIVCETPFRLHGKDVTQLTRQDLCPRK [chain 2 R114A]

The remaining lines, values behind:

Row | Variant | response [Response unit]
3 | chain 2 MLSGVWFLSVLTVAGILQTESRKTAKDICKIRCLCEEKENVLNINCENKGFTTVSLLQPPQYRIYQLFLNGNLLTRLYPNEFVNYSNAVTLHLGNNGLQEIRPGAFSGLKTLKRLHLNNNKLEVLREDTFLGLESLEYLQADYNYISTIEAGAFSKLNKLKVLILNDNLLLSLPSNVFRFVLLTHLDLRGNRLKVMPFAGVLEHIGGIMEIQLEANPWNCTCDLLPLKAWLDTITVFVGEIVCETPFRLHGKDVTQLTRQDLCPRK [chain 2 E215A] | ~210
4 | chain 2 MLSGVWFLSVLTVAGILQTESRKTAKDICKIRCLCEEKENVLNINCENKGFTTVSLLQPPQYRIYQLFLNGNLLTRLYPNEFVNYSNAVTLHLGNNGLQEIRPGAFSGLKTLKRLHLNNNKLEVLREDTFLGLESLEYLQADYNYISTIEAGAFSKLNKLKVLILNDNLLLSLPSNVFRFVLLTHLDLRGNRLKVMPFAGVLEHIGGIMEIQLEENPWNCTCDLLPLKAWLDTITVFVGEIVCETPARLAGKDVTQLTRQDLCPRK [chain 2 F247A, chain 2 H250A] | ~460
5 | chain 2 MLSGVWFLSVLTVAGILQTESRKTAKDICKIRCLCEEKENVLNINCENKGFTTVSLLQPPQYRIYQLFLNGNLLTRLYPNEFVNYSNAVTLHLGNNGLQEIRPGAFSGLKTLKRLHLNNNKLEVLREDTFLGLESLEYLQADYNYISTIEAGAFSKLNKLKVLILNDNLLLSLPSNVFRFVLLTHLALRGNRLKVMPFAGVLEHIGGIMEIQLEENPWNCTCDLLPLKAWLDTITVFVGEIVCETPFRLHGKDVTQLTRQDLCPRK [chain 2 D187A] | ~120
